From the Human Domainome abundance scans (Beltran et al. 2025)
± gives the uncertainty stated by the source.

B1: Unconventional myosin-Ie, residues 1051 to 1108; numbered along this chain, Q12965 (parent)
chain: PQVPQCKALYAYDAQDTDELSFNANDIIDIIKEDPSGWWTGRLRGKQGLFPNNYVTKI

Variants of: B1
Test: abundance fitness (aPCA) (normalised: wild type 0, dead -1); higher = more abundant; growth selection in yeast, the domain comes from the species named
Conditions: Homo sapiens
For PQVPQCKALYAYDAQDTDELSFNANDIIDIIKEDPSGWWTGDLRGKQGLFPNNYVTKI, the abundance fitness was -0.254 ± 0.072.
PQVPQCKALYAYDAQDTDELSFNANDIIDIIKEDPSGWWTGRLRGKMGLFPNNYVTKI showed an abundance fitness of -0.169 ± 0.11.
In the case of PQVPQCKALYAYDAQDTDELSFNANDIIDIIKEDPSGWWTGRLRGKEGLFPNNYVTKI, the abundance fitness is reported as -0.066 ± 0.046.
For PQVPQCKALYAYDAQDTDELSFNANDIIDIIKEDRSGWWTGRLRGKQGLFPNNYVTKI, the abundance fitness was -0.094 ± 0.04.
With PQVPPCKALYAYDAQDTDELSFNANDIIDIIKEDPSGWWTGRLRGKQGLFPNNYVTKI the abundance fitness was -0.739 ± 0.051.
PQVPECKALYAYDAQDTDELSFNANDIIDIIKEDPSGWWTGRLRGKQGLFPNNYVTKI showed an abundance fitness of -0.467 ± 0.081.
Variant PQVPACKALYAYDAQDTDELSFNANDIIDIIKEDPSGWWTGRLRGKQGLFPNNYVTKI has an abundance fitness of -0.245 ± 0.064.
Work on PQVPQCKALYAYDAQDTDELSFNANDIIDIIVEDPSGWWTGRLRGKQGLFPNNYVTKI yielded an abundance fitness of -0.119 ± 0.04.
In the case of PQVPQCKALYATDAQDTDELSFNANDIIDIIKEDPSGWWTGRLRGKQGLFPNNYVTKI, the abundance fitness is reported as -0.836 ± 0.15.
Work on PQVPQCKALYAYDAQDTDELSFNANDIIDIIKEDPSGWWTGRLRGKQGLFPNNYQTKI yielded an abundance fitness of -1.02 ± 0.12.
Work on PQVPQCKALYAYDAQDTDELSFNANDIIDIIKEDPSGWWTGRGRGKQGLFPNNYVTKI yielded an abundance fitness of -0.762 ± 0.07.
For PNVPQCKALYAYDAQDTDELSFNANDIIDIIKEDPSGWWTGRLRGKQGLFPNNYVTKI, the abundance fitness was 0.068 ± 0.1.
Variant PTVPQCKALYAYDAQDTDELSFNANDIIDIIKEDPSGWWTGRLRGKQGLFPNNYVTKI has an abundance fitness of -0.155 ± 0.11.
With PPVPQCKALYAYDAQDTDELSFNANDIIDIIKEDPSGWWTGRLRGKQGLFPNNYVTKI the abundance fitness was -0.062 ± 0.069.
In the case of PQVPQCKALYAYDAQDTDELYFNANDIIDIIKEDPSGWWTGRLRGKQGLFPNNYVTKI, the abundance fitness is reported as -0.756 ± 0.28.
PQVPQCKALYAYDAQDTDELGFNANDIIDIIKEDPSGWWTGRLRGKQGLFPNNYVTKI showed an abundance fitness of -0.358 ± 0.059.
For PQVPQCKALYAYDAQDTDELSFNANDIIDIIKEDPSGWWTGRLRGKQGLCPNNYVTKI, the abundance fitness was -0.94 ± 0.42.
For PQVPQCKALYAYDAQDDDELSFNANDIIDIIKEDPSGWWTGRLRGKQGLFPNNYVTKI, the abundance fitness was -0.007 ± 0.078.
In the case of PQVPQCKALYAYDAQDQDELSFNANDIIDIIKEDPSGWWTGRLRGKQGLFPNNYVTKI, the abundance fitness is reported as -0.078 ± 0.055.
PQVPQCKALYAYDAQDCDELSFNANDIIDIIKEDPSGWWTGRLRGKQGLFPNNYVTKI showed an abundance fitness of -0.128 ± 0.063.
PQVPQCKALYAYDAQDTDELSFNANDIIDIIKEDPMGWWTGRLRGKQGLFPNNYVTKI showed an abundance fitness of -0.284 ± 0.19.
In the case of PQVPQCKALYAYDAQDTDELSFNANDIIDIIKEDPGGWWTGRLRGKQGLFPNNYVTKI, the abundance fitness is reported as -0.031 ± 0.047.
Variant PQVPQCKALYAYDAQDTDELSFNANDIIDIIKEDPFGWWTGRLRGKQGLFPNNYVTKI has an abundance fitness of -0.279 ± 0.064.
With PQVPQCKALYAYDAQDTDELSFNANDIIDIIKEDPYGWWTGRLRGKQGLFPNNYVTKI the abundance fitness was -0.349 ± 0.093.
With PQVPQCKALYAYDAQDTDELSFNANVIIDIIKEDPSGWWTGRLRGKQGLFPNNYVTKI the abundance fitness was -0.855 ± 0.12.
PQVPQCKALYAYDAQDTDELSFNANQIIDIIKEDPSGWWTGRLRGKQGLFPNNYVTKI showed an abundance fitness of -0.263 ± 0.11.
For PQVPQCKALYAYDAQPTDELSFNANDIIDIIKEDPSGWWTGRLRGKQGLFPNNYVTKI, the abundance fitness was -0.798 ± 0.076.
PQVPQCKALYAYDAQLTDELSFNANDIIDIIKEDPSGWWTGRLRGKQGLFPNNYVTKI showed an abundance fitness of -0.271 ± 0.046.
With PQVPQCKALYAYNAQDTDELSFNANDIIDIIKEDPSGWWTGRLRGKQGLFPNNYVTKI the abundance fitness was -0.084 ± 0.094.
Work on PQVPQCKALYAYCAQDTDELSFNANDIIDIIKEDPSGWWTGRLRGKQGLFPNNYVTKI yielded an abundance fitness of -0.134 ± 0.06.
PQVPQCKALYAYDAQDTDELSFNANDIIDIIKEDPSGWWTGRLRGKQGLFPNNYVTKT gave an abundance fitness of -0.484 ± 0.25.
PQVPQCKALYAYDAQDTDELSFNANDIIKIIKEDPSGWWTGRLRGKQGLFPNNYVTKI gave an abundance fitness of -0.555 ± 0.12.
With PQVPQCKALYAYDAQDTDELSFNANDIINIIKEDPSGWWTGRLRGKQGLFPNNYVTKI the abundance fitness was -0.277 ± 0.098.
Work on PQVPQCKALYAYDAQDTDELSFNANDIIGIIKEDPSGWWTGRLRGKQGLFPNNYVTKI yielded an abundance fitness of -0.478 ± 0.045.
PQVPQCKALYAYDAQDTDELSFNANDIIDHIKEDPSGWWTGRLRGKQGLFPNNYVTKI showed an abundance fitness of -0.765 ± 0.21.
Variant PQVPQCKALYAYDAQDTDELSFNANDIIDFIKEDPSGWWTGRLRGKQGLFPNNYVTKI has an abundance fitness of -0.736 ± 0.33.
PQVPQCWALYAYDAQDTDELSFNANDIIDIIKEDPSGWWTGRLRGKQGLFPNNYVTKI gave an abundance fitness of -0.26 ± 0.066.
Work on PQVPQCSALYAYDAQDTDELSFNANDIIDIIKEDPSGWWTGRLRGKQGLFPNNYVTKI yielded an abundance fitness of -0.167 ± 0.055.
In the case of PQVPQCTALYAYDAQDTDELSFNANDIIDIIKEDPSGWWTGRLRGKQGLFPNNYVTKI, the abundance fitness is reported as -0.049 ± 0.069.
PQVPQCKALYAYDAQDTDELSFNANDIIDIIKEDPSGWWTGRLRGKQGLFPNNYVTPI showed an abundance fitness of -0.218 ± 0.12.
For PQVPQCKALYAYDAQDTDELSFNANDIIDIIKEDPSGWWTGRLRGKQGLFPNNYVTTI, the abundance fitness was -0.365 ± 0.1.
PQVPQCKALYAYDAQDTDELSFNANDIIDIDKEDPSGWWTGRLRGKQGLFPNNYVTKI gave an abundance fitness of -0.359 ± 0.073.
In the case of PQVPQCKALYAYDAQDTDELSFNANDIIDIVKEDPSGWWTGRLRGKQGLFPNNYVTKI, the abundance fitness is reported as -0.054 ± 0.034.
In the case of PQVPQCKALYAYDAQDTDELSFNANDIIDIYKEDPSGWWTGRLRGKQGLFPNNYVTKI, the abundance fitness is reported as -0.25 ± 0.091.
For PQVPQCKALYAYDAQDTDELSFNANDIIDIIKEDPSGWITGRLRGKQGLFPNNYVTKI, the abundance fitness was -0.179 ± 0.061.
Work on PQVPQCKALYAYDAQDTDELSFNANDIIDIIKEDPSGWWTGRLRGKQGLFENNYVTKI yielded an abundance fitness of -0.674 ± 0.072.
